Measurements as given in patent publication US20210196823A1, “Methods of Treating Metabolic Disease” (Pfizer Inc., priority 2018, published 2021).

Columns and labels:
[1] = test system: HepG2 cells; test: HAMP and ID1 qRT-PCR in HepG2 cells treated with BMPs with or without mouse ERFE; type: cell-based; conditions: 2 nM BMP 2/6, BMP6 or BMP7 + 10 μg/ml mouse ERFE, 6 h, serum-free media
Protocol: (b) Gene expression microarray: Microarray analysis of Huh7 cells treated with mouse or human erythroferrone was carried out to test the activity of erythroferrone on the BMP/SMAD signalling pathway. Generally cell treatments were carried out according to the following protocol: Huh7 and HepG2 were cultured in Dulbecco's Modified Eagle's Medium—High Glucose (Sigma), supplemented with 10% Fetal Bovine Serum (Sigma), 1% Penicillin-Streptomycin (Sigma) and 1% L-Glutamine (Sigma), unless otherwise indicated. Cells were plated 24 h before treatments in 24-well (gene expression analysis) or 12-well (protein analysis) cell culture plates. At the time of treatment, cells were washed with PBS and fresh media was added.
(c) RNA isolation, cDNA synthesis and qRT-PCR: Suppression of several BMP-target genes: HAMP, ID1, ID3, SMAD6 and SMAD7 was further confirmed by qRT-PCR. Cells were lysed and RNA was isolated using the RNeasy Plus kit (Qiagen), followed by RNA quantification and quality assessment using Nanodrop (Thermo Fisher). cDNA was synthesized using the High Capacity RNA-to-cDNA kit (Applied Biosystems). Gene expression was assessed using quantitative real-time PCR with Taqman Gene Expression Master Mix and inventoried Taqman Gene expression assays (Applied Biosystems) specific for the genes of interest according to the manufacturer's instructions. […]

[2] = test system: BMP-target genes in the liver; test: Short-term ERFE treatment in WT mice: liver BMP-target genes, serum and liver iron; type: in vivo; conditions: 200 μg i.v., 3 h
Excerpt: (a) Animal studies: Wild-type male C57BL/6 mice were purchased from Harlan Laboratories, UK. Embryos from Fam132b+/− mice on a mixed Sv129/C57BL/6 background were obtained from the Mutant Mouse Regional Resource Center (MMRRC) at UC Davis (strain 66; 12955-Fam132btm1Lex/Mmucd, ID MMRRC:032289-UCD) and backcrossed onto C57BL/6 background using marker-assisted accelerated backcrossing. Heterozygote pairs were mated to generate homozygous animals from which knockout and wild-type colonies were maintained. Animals were housed in individually ventilated cages in the Department of Biomedical Services, University of Oxford, and provided access to normal chow (163 ppm of iron, Special Diets Services 801700) and water ad libitum. All experiments were performed in 9-13 weeks old male mice. For EPO treatments, mice were injected intraperitoneally with 200 IU recombinant human EPO (Bio-Rad) in water or vehicle (water) daily for three consecutive days and culled 24 h after the last EPO injection. For ERFE treatments, mice were injected intravenously with 200 μg of recombinant mouse ERFE or vehicle (saline) and culled 3 h after treatment. Mice were euthanized in increasing CO2 concentrations.
(b) Serum iron analysis: Blood was taken by cardiac puncture immediately after euthanising mice and collected in BD EDTA or SST (serum) Microtainer tubes. Serum was prepared by centrifugation of clotted blood at 8000×g for 3 minutes in BD Microtainer SST tubes (Beckton Dickinson) and used for serum iron quantification using a Abbott Architect c16000 automated analyzer (Abbott Laboratories).
(c) Tissue non-heme iron measurement: Liver tissues were dried for 4 hours at 100° C., weighed and digested in 10% tricholoroacetic acid (Sigma)/30% hydrochloric acid (Sigma) for 20 hours at 65° C. A standard curve was generated using a dilution series of ferric ammonium citrate (Sigma) in the 10% (w/v) trichloroacetic acid/30% hydrochloric acid mixture. Non-heme iron content was determined colorimetrically by measuring absorbance at 535 nm following reaction with chromogen reagent containing 0.1% (w/v) bathophenoldisulphonic acid (Sigma)/0.8% thioglycolic acid (Sigma).
Three hours after the injections, mice were culled and serum and liver iron measured. […] Additionally, three hours after the injections, mice were culled and the liver harvested for analysis of liver gene expression for BMP-target genes.

[3] = test system: C2C12 Bre-Luc cells; test: BMP/SMAD signalling output in C2C12 Bre-Luc cells; type: cell-based; conditions: 24 h
Protocol: As HAMP can be stimulated by a variety of ligands, we further tested the effect of ERFE in cells treated with various BMPs by measuring BMP/SMAD signalling output in C2C12 Bre-Luc cells. C2C12 Bre-Luc cells were treated with 2 nM of BMP in combination with a gradient of mouse ERFE concentrations (7.5 pM to 0.5 μM) for 24 h, and luminescence measured in each well. […] Analogous data confirmed suppression of HAMP and ID1 in cells treated with ERFE and BMP 2/6, BMP5, BMP6 and BMP7, FIG. 3F.
The inhibitory effect of EFE on selected BMPs was tested in-vitro in three different cell types, C2C12, Huh7 and HepG2. Huh7 (FIG. 3G, 3H) and HepG2 (FIGS. 3J, 3K) cells were treated with 2 nM of BMPs, alone or in combination with 10 μg/ml of mouse ERFE, in serum-free media, and analysed 6 h after treatment. Gene expression of HAMP and ID1 was measured by qRT-PCR. Results expressed as fold change relative to non-treated cells from 3 independent experiments. Statistical significance was analysed for each pair of BMP treatments. (*p<0.05, **p<0.01, ***p<0.001, ****p<0.0001, Student's t test). Additionally we tested the effect of ERFE in cells treated with various BMPs by measuring BMP/SMAD signalling output in C2C12 Bre-Luc cells (FIG. 3E). C2C12 Bre-Luc cells were treated with 2 nM of BMP in combination with a gradient of mouse ERFE concentrations (7.5 pM to 0.5 μM) for 24 h, and luminescence measured in each well.

B1: mouse ERFE: recombinant mouse erythroferrone (SEQ ID NO: 2); monoFC-muErfe is a monomeric FC murine ERFE fusion (protein, listed as Mus musculus)
chain: MASRRPVGARTLLACASLLAAMGLGVPESAEPVGTHARPQPPGAELPAPPANSPPEPIAHAHSVDPRDAWMLFVKQSDKGINSKRRSKARRLKLGLPGPPGPPGPQGPPGPFIPSEVLLKEFQLLLKGAVRQRESHLEHCTRDLPASGSPSRVPAAQELDSQDPGALLALLAATLAQGPRAPRVEAAFHCRLRRDVQVDRRALHELGIYYLPEVEGAFHRGPGLNLTSGQYTAPVAGFYALAATLHVALTEQPRKGPTRPRDRLRLLICIQSLCQHNASLETVMGLENSSELFISVNGVLYLQAGHYSVFLDNASGSSLTVRSGSHFSAILLGL
- HAMP and ID1 expression / BMP/SMAD signalling in BMP-treated HepG2 cells [1]: suppresses
- liver iron [2]: not affected
- serum iron [2]: not affected
- serum hepcidin levels ([2]; in comparison to the control): reduced
- liver expression of Hamp and BMP-target genes ([2]; vs inactive control Clip huERFE): significantly reduced
- BMP2 activity (luminescence) ([3]; 2 nM BMP2, mouse ERFE 7.5 pM to 0.5 μM): no effect
- BMP4 activity (luminescence) ([3]; 2 nM BMP4, mouse ERFE 7.5 pM to 0.5 μM): no effect
- activation of BMP signalling by BMP5 (luminescence) ([3]; 2 nM BMP5, mouse ERFE 7.5 pM to 0.5 μM): dose-dependent decrease
- activation of BMP signalling by BMP6 (luminescence) ([3]; 2 nM BMP6, mouse ERFE 7.5 pM to 0.5 μM): dose-dependent decrease
- activation of BMP signalling by BMP7 (luminescence) ([3]; 2 nM BMP7, mouse ERFE 7.5 pM to 0.5 μM): dose-dependent decrease
- BMP9 activity (luminescence) ([3]; 2 nM BMP9, mouse ERFE 7.5 pM to 0.5 μM): no effect
